# Results taken from the Immune Epitope Database (IEDB).
# pIC50: −log10 of the molar value.
# Biological target: HLA-A*02:01
# Assay: IEDB peptide-MHC binding, purified MHC/competitive/fluorescence; ≥ and ≤ were set here for values at or beyond the usual limits of such assays
# Conditions: source organism: Homo sapiens
row,Sequence,pIC50
1,ALYLVCGER,≤ 4.04
2,GSHLVEALYLV,5.43
3,HLCGSHLVEAL,6.36
4,HLVEALYLVC,5.76
5,YLVCGERGFF,5.64
6,YLVCGERGFFY,5.07

# More lines, now with the values ahead:
row,pIC50,Sequence
1,≤ 4.00,ALYLVCGERG
2,5.65,ALYLVCGERGF
3,6.72,HLVEALYLVCG
4,4.23,SHLVEALYL
